Where two headings read alike, the source gives them in different places.
Tests used:
Assay in all cases: crystal structure
[1] = target: T1, ALKBH2-dN55 crosslinking mutant (Homo sapiens, UniProt Q6NS38 56-261, C67S;C165S;G169C;C192S)
T1 sequence: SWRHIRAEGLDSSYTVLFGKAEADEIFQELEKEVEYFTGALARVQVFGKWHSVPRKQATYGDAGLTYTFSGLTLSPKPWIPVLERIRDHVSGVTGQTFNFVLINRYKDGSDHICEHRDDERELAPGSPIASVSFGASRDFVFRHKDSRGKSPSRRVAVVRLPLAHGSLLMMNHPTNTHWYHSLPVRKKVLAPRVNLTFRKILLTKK

[2] = target: T1, ALKBH2-dN55 crosslinking mutant; remark: listed apart in the source
[3] = target: T1, ALKBH2-dN55 crosslinking mutant; remark: listed apart in the source
[4] = target: T1, ALKBH2-dN55 crosslinking mutant; remark: listed apart in the source

B1: eA DNA (dsDNA)
DNA 1: CTGTCAAACTGCG
DNA 2: TCGCAGTTAGACA
modifications: 1,N6-ethenoadenine at position 7 of strand 1 (written A); no C* printed in this strand
binding result [1]: binds

B2: CI DNA (dsDNA)
DNA 1: ATGTATCACTGCG
DNA 2: TCGCAGTGATACA
modifications: C* (position 9 of strand 1): disulfide crosslinking cytosine; strand 2 position 8 is inosine (written G)
binding result [2]: binds

B3: 3-meC DNA (dsDNA)
DNA 1: CTGTCTCACTGCG
DNA 2: TCGCAGTGAGACA
modifications: 3-methylcytosine at position 7 of strand 1 (written C); C* (position 9): disulfide crosslinking cytosine
binding result [1]: binds

B4: AT DNA (dsDNA)
DNA 1: ATGTATAACTGCG
DNA 2: TCGCAGTTATACA
modifications: C* (position 9 of strand 1): disulfide crosslinking cytosine
binding result [3]: binds

B5: CG DNA (dsDNA)
DNA 1: CTGTCATCACTGCG
DNA 2: TCGCAGTGATGACA
modifications: C* (position 10 of strand 1): disulfide crosslinking cytosine
binding result [4]: binds
